Test results: PMC314469, “Protein Interaction Networks by Proteome Peptide Scanning” (PLoS Biology, 2004)

T1: Rvs167 SH3 (RV167_YEAST), P39743
T1 chain: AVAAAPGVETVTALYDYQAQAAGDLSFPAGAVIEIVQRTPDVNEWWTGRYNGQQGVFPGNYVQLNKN

T2: Boi1 SH3 (BOI1_YEAST), P38041
T2 chain: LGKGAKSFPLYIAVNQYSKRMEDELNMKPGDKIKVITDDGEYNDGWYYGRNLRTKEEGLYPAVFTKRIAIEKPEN

T3: Yfr024 SH3 (LSB3_YEAST), P43603
T3 chain: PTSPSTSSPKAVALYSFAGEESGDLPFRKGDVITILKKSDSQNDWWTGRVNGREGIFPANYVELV

T4: Boi2 SH3 (BOI2_YEAST), P39969
T4 chain: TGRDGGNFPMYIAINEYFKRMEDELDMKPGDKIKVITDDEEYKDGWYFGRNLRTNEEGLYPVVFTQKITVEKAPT

T5: Yhr016c SH3 (YSC84_YEAST), P32793
T5 chain: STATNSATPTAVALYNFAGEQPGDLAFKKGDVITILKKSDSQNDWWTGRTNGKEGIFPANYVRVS

T6: Myo5 SH3 (MYO5_YEAST), Q04439
T6 chain: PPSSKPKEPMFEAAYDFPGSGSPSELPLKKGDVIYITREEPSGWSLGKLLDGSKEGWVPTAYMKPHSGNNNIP


Experiments:
Assay in all cases: SPOT array
[1] = target: T1, Rvs167 SH3 (RV167_YEAST), P39743
[2] = target: T2, Boi1 SH3 (BOI1_YEAST), P38041
[3] = target: T3, Yfr024 SH3 (LSB3_YEAST), P43603
[4] = target: T4, Boi2 SH3 (BOI2_YEAST), P39969
[5] = target: T5, Yhr016c SH3 (YSC84_YEAST), P32793
[6] = target: T6, Myo5 SH3 (MYO5_YEAST), Q04439
[7] = target: Sho1 SH3 (SHO1_YEAST), P40073
Sequence of Sho1 SH3 (SHO1_YEAST), P40073 (P40073 295-366): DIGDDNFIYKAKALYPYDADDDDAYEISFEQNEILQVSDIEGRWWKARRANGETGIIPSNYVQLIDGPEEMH

Row | normalised SPOT signal, Boehringer light units (BLU); mean over the file's lines of this peptide [1] | normalised SPOT signal, Boehringer light units (BLU); mean over the file's lines of this peptide [2] | normalised SPOT signal, Boehringer light units (BLU); mean over the file's lines of this peptide [3] | normalised SPOT signal, Boehringer light units (BLU); mean over the file's lines of this peptide [4] | normalised SPOT signal, Boehringer light units (BLU); mean over the file's lines of this peptide [5] | normalised SPOT signal, Boehringer light units (BLU); mean over the file's lines of this peptide [6] | normalised SPOT signal, Boehringer light units (BLU); mean over the file's lines of this peptide [7] | Binder
1 | 46.1 | 70 | 0 | 33.1 | 9.3 | 96 | 66.3 | GYDEKGNPIPPNNW [YJL216C 137-150]
2 | 30.3 | 113 | 161 | 18.2 | 27.4 | 159 | 115 | HISDKMNPASPQYF [YDR266C 250-263]
3 | 252 | 283 | 947 | 69.3 | 70.2 | 478 | 121 | HLVRKVAPTKPMYS [YHR070W 477-490]
4 | 63.6 | 144 | 20 | 135 | 45.4 | 261 | 25.5 | GTVTKTAPSFPQSS [YPL075W 604-617]
5 | 29.9 | 37.2 | 2.5 | 32.3 | 17 | 229 | 11.7 | HELVKSDPHFPYGT [YDL117W 838-851]
6 | 153 | 247 | 122 | 7.2 | 40.3 | 151 | 53.1 | HKFVKSSPVVPFDD [YOR335C 27-40]
7 | 15.9 | 26.1 | 82.7 | 19.3 | 34.1 | 166 | 89.5 | HILEKYSPFDPSGR [YPL148C 31-44]
8 | 49.5 | 89 | 14.5 | 22.1 | 39.7 | 124 | 69.5 | HLLGKEGPSAPNPS [YNL287W 476-489]
9 | 25 | 39.8 | 13.3 | 5.8 | 37.2 | 108 | 25 | GYNPKTVPFVPISG [YBR118W 180-193]
10 | 13.4 | 0 | 27.3 | 7.4 | 26.5 | 289 | 70.5 | HEASKSFPKAPQAS [YKL105C 877-890]
11 | 42.8 | 54.9 | 158 | 1.7 | 15.2 | 215 | 57900 | HEREKALPPIPFTT [YLR425W 196-209]
12 | 20.6 | 114 | 8.5 | 1.8 | 59.3 | 62.3 | 82.1 | HNAAKPIPHVPQAS [YKR067W 8-21]
13 | 235 | 118 | 204 | 35.7 | 4.9 | 467 | 1960 | HFNTKKIPELPSQF [YML051W 376-389]
14 | 68.1 | 91.5 | 294 | 17.7 | 32.6 | 258 | 321 | HFPSRSQPSDPKLQ [YKR028W 906-919]
15 | 46.4 | 91.8 | 148 | 2.4 | 61.8 | 172 | 64.4 | HEVPKRSPEKPSNP [YNL278W 806-819]
16 | 88000 | 49900 | 43600 | 30.6 | 69100 | 39900 | 626 | GTTNRGPPPLPPRA [YLR144C 18-31]
